Data reported in the Human Domainome abundance scans (Beltran et al. 2025).

B1: POU domain, class 6, transcription factor 2, residues 609 to 663; numbered along this chain, P78424 (parent)
chain: KRRTSFTPQALEILNAHFEKNTHPSGQEMTEIAEKLNYDREVVRVWFCNKRQALK
B2: Homeobox protein cut-like 2, residues 895 to 963; numbered along this chain, O14529 (parent)
chain: EVDTLELTRQVKEKLAKNGICQRIFGEKVLGLSQGSVSDMLSRPKPWSKLTQKGREPFIRMQLWLSDQL

Variants of: B1
Assay: abundance fitness (aPCA) (normalised: wild type 0, dead -1); higher = more abundant; growth selection in yeast, the domain comes from the species named
Settings: Homo sapiens

Abundance fitness, by site and new letter:
K1: E -0.632, A -0.19, H -0.309, D -0.161, I 0.111, G 0.157, L -0.465, N 0.043

Variants of: B2
Assay: as above
Settings: Homo sapiens

Abundance fitness of substitutions, site by site:
R60: C -0.681, S -0.396, P -0.912, G -0.287, H -0.462, M -0.38, T -0.209, E -0.631, D -0.905, L -0.215, Q -0.111, V -0.863, I -0.653, F -1.08, W -0.553, N -0.413, Y -0.633, A -0.27, K 0.15
L63: C -0.127, V -0.103, M 0.041, Y -0.115, K 0.113, Q 0.078, F -0.274, E 0.037, H 0.012, P -0.728, D 0.07, G -0.19, W -0.271, N -0.006, A 0.058, T -0.003, I -0.213, R 0.096, S 0.069
T51: Q -0.247, G -0.145, K -0.115, L -0.082, D 0.117, N -0.082, W -0.033, F -0.005, P -0.355, Y -0.011, V -0.115, R -0.109, I -0.007, H -0.235, E -0.403
G54: S -0.092, W -0.097, K -0.461, A 0.084, T -0.084, F -0.048, C -0.007, I 0.046, M 0.004, L -0.011, P -0.581, H -0.215, D 0.201, Y -0.165
W64: K -0.899, N -0.678, L -0.822, D -1.06, G -0.942, F -0.222, S -1.3, C -0.946, I -1.19, T -1.31, M -1.06, A -1.17, Q -0.907, V -1.15, Y -0.372, H -1.08, R -0.945, P -0.806
Q52: C -0.038, V -0.034, N -0.215, R 0.015, D 0.017, L -0.025, M -0.106, T 0.046, P 0.01, H -0.218, A 0.042, W -0.187, G -0.18, Y -0.073, I -0.06, E -0.016, K 0.094
P57: E -0.139, V -0.117, S -0.034, Y 0.027, I 0.044, H -0.026, D -0.085, G -0.456, L 0.087, W -0.102, F -0.028, M 0.073, C -0.139, A -0.016, R -0.081, T 0.017, Q -0.036, K -0.058
E56: G -0.245, C -0.843, D -0.186, T -0.22, M -0.213, A -0.08, Q -0.06, V -0.182, H -0.446, L -0.211, R -0.157, I 0.096, K -0.156, P -0.605, S -0.203, N -0.348, F -0.362, Y -0.248, W -0.314
S66: R 0.028, T -0.008, W -0.08, N 0.189, P -0.998, M -0.085, V -0.066, G 0.048, C -0.048, Y -0.001, E -0.069, F -0.2, K 0.109, L -0.104, D 0.094, H 0.005, A -0.045, I -0.039, Q 0.002
Q68: Y -0.105, W -0.087, L -0.052, M -0.022, S -0.097, V -0.072, N -0.068, K 0.062, G -0.13, I -0.142, E -0.014, R -0.057, F -0.099
I59: N -0.117, Y -0.059, C -0.278, Q 0.031, E 0.028, P -0.937, G -0.315, F -0.212, S -0.118, T -0.049, H 0.051, R 0.113, D -0.535, L -0.011, W -0.299, K 0.079, M -0.046, A -0.079
D67: I -0.603, V -0.549, G 0.009, N -0.07, S -0.082, C -0.576, P -0.209, A -0.207, E -0.017, Y -0.321, F -0.64, Q 0.057, M -0.25, W -0.661, L -0.389, H -0.296, K -0.037, R -0.008
F58: L -0.274, V -0.662, N -1.1, S -1.11, W -0.111, R -0.906, K -1.11, A -0.917, Y 0.186, I -0.596, M -0.502, E -0.763, C -0.845, G -0.888, T -1.11, Q -1.01
R55: N -0.671, C -0.625, I -0.684, Y -0.76, H -0.654, M -0.385, A -0.511, S -0.559, K 0.052, T -0.359, V -0.487, L -0.486, G -0.674, D -0.954, P -0.814, F -0.569, Q -0.303
K53: W -0.298, T -0.166, E -0.017, M -0.373, Q -0.146, Y -0.061, I -0.037, C -0.405, H -0.194, S 0.04, N -0.233, G -0.309, L -0.101, V -0.259, D -0.3, R -0.09, A -0.014, P -0.282
Q62: I -0.277, A -0.098, N -0.401, K 0.17, M -0.153, F -0.69, W 0.005, G -0.06, P -0.84, C -0.263, S -0.079, V -0.367, H -0.127, T -0.308, D -0.654, Y -0.278, R 0.015
L65: H -0.696, A -0.694, D -0.841, Y -0.56, N -0.973, M -0.294, G -0.952, F -0.193, T -0.975, K -0.726, E -1.28, Q -0.926, I -0.278, R -0.782, P -1.03, S -0.962, W -0.44, C -0.511
M61: R -0.935, G -0.735, V -0.418, S -0.606, W -0.379, K -1.05, Y -1, H -0.812, A -0.093, F -0.157, D -0.702, L -0.191, E -1.02, C -0.292, Q -1.02
L69: I -0.221, G -0.056, R -0.08, T -0.199, C -0.054, E -0.068, D -0.188, S -0.052, N -0.058, K -0.041, H -0.182, W -0.137, M -0.007, A -0.164, F -0.083, P -0.163, Q -0.092, Y -0.096
